Measurements published in paper PMC7332683, “A ferredoxin-dependent dihydropyrimidine dehydrogenase in Clostridium chromiireducens” (Bioscience Reports, 2020).

Key:
PydAc = molecular target: T1, PydAc (Clostridium chromiireducens, UniProt A0A399ILH0); test: spectrophotometric assay of reduced methyl viologen oxidation at […] nm, anaerobic; activity with and without added FMN; assay type: biochemical; settings: 15 uM FMN added, uracil, pH 7.5, predominantly apo recombinant enzyme
T1 construct: gene preA; FMN and two Fdx domains, no FAD/NADPH domain; strain C1 (DSM12136) is given only for the growth test
T1 sequence (A0A399ILH0 1-499): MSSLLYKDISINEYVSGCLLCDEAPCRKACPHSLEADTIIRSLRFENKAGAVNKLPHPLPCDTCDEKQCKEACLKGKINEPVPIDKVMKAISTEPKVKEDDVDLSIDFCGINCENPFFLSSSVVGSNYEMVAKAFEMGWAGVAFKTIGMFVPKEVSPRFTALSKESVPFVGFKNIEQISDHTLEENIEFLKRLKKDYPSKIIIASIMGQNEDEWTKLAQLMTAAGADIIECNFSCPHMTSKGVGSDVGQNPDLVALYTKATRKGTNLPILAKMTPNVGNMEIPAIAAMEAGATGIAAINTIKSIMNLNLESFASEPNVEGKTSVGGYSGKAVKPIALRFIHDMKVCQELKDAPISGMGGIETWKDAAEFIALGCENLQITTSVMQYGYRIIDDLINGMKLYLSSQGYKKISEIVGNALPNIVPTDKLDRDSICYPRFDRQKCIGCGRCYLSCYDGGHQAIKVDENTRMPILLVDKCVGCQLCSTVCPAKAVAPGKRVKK

purified protein = substrate: O=c1cc[nH]c(=O)[nH]1; test: purified protein; assay type: biochemical, Clostridium chromiireducens; settings: 0.1 mM reduced methyl viologen (MV+), 15 uM FMN, 0.1 M KCl, 20 mM Tris-HCl, pH 7.5, 0.2 uM reconstituted PydAc

Molecule: Cc1cc2nc3c(=O)[nH]c(=O)nc-3n(C[C@H](O)[C@H](O)[C@H](O)COP(=O)(O)O)c2cc1C [FMN]
- spectrophotometric assay of reduced methyl viologen oxidation at 600 nm, anaerob (PydAc): omission of FMN from the assay mixture led to a large decrease in activity

B1: PydAc (Clostridium chromiireducens) (protein)
chain: MSSLLYKDISINEYVSGCLLCDEAPCRKACPHSLEADTIIRSLRFENKAGAVNKLPHPLPCDTCDEKQCKEACLKGKINEPVPIDKVMKAISTEPKVKEDDVDLSIDFCGINCENPFFLSSSVVGSNYEMVAKAFEMGWAGVAFKTIGMFVPKEVSPRFTALSKESVPFVGFKNIEQISDHTLEENIEFLKRLKKDYPSKIIIASIMGQNEDEWTKLAQLMTAAGADIIECNFSCPHMTSKGVGSDVGQNPDLVALYTKATRKGTNLPILAKMTPNVGNMEIPAIAAMEAGATGIAAINTIKSIMNLNLESFASEPNVEGKTSVGGYSGKAVKPIALRFIHDMKVCQELKDAPISGMGGIETWKDAAEFIALGCENLQITTSVMQYGYRIIDDLINGMKLYLSSQGYKKISEIVGNALPNIVPTDKLDRDSICYPRFDRQKCIGCGRCYLSCYDGGHQAIKVDENTRMPILLVDKCVGCQLCSTVCPAKAVAPGKRVKK
notes: FMN and two Fdx domains, no FAD/NADPH domain; strain C1 (DSM12136) is given only for the growth test
- Km (purified protein): 130 ± 30 µM
- kcat (purified protein): 0.92 ± 0.04 s⁻¹
